Results reported in the supplement of paper PMC7877785.
± gives the uncertainty stated by the source.

Assay: self-splicing fitness, log relative to wild type (ln ratio); higher = more splicing; Tetrahymena group I intron in knt gene, E. coli kanamycin selection, DiMSum; sequences stand for … in CUCUCU…GGAGGGAAAAGUUAUCAGGCAUGCACCUGGUAGCUAGUCUUUAAACCAAUAGAUUGCAUCGGUUUAAAAGGCAAGACCGUCAAAUUGCGGGAAAGGGGUCAACAGCCGUUCAGUACCAAGUCUCAGGGGAAACUUUGAGAUGGCCUUGCAAAGGGUAUGGUAAUAAGCUGACGGACAUGGUCCUAACCACGCAGCCAAGUCCUAAGUCAACAGAUCUUCUGUUGAUAUGGAUGCAGUUCACAGACUAAAUGUCGGUCGGGGAAGAUGUAUUCUUCUCAUAAGAUAUAGUCGGACCUCUCCUUAAUGGGAGCUAGCGGAUGAAGUGAUGCAACACUGGAGCCGCUGGGAACUAAUUUGUAUGCGAAAGUAUAUUGAUUAGUUUUGGAGUACUCGUGGUCG
Summary of the method: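 Library with all eight P1ex-region intron nucleotides randomised, intron inside the knt kanamycin-resistance gene on pET-22b(+), in E. coli BL21(DE3). Cells grew overnight at 37°C or 30°C on LB agar with or without 25 μg/mL kanamycin (plus 100 μg/mL carbenicillin, 50 μM IPTG, 0.2% rhamnose), in six replicate transformations. Pooled colonies were amplicon-sequenced on Illumina HiSeq 2500. DiMSum fitness is the error-weighted combination of wild-type-normalised replicate fold changes, kanamycin versus none.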

Sequence	self-splicing fitness (ln) (30 °C)	self-splicing fitness (ln) (37 °C)
GCACAGCAAUAUUACGCUUA	-0.908 ± 0.065	-0.871 ± 0.062
UAUAAGCAAUAUUACGUAUG	-1.31 ± 0.091	-0.577 ± 0.12
AGAAAGCAAUAUUACGCGGA	-2.26 ± 0.13	-0.649 ± 0.13
GUAUAGCAAUAUUACGGGUA	-2.56 ± 0.27	-1.28 ± 0.19
AGGAAGCAAUAUUACGGAUU	-2.3 ± 0.12	-1.55 ± 0.14
UGAGAGCAAUAUUACGAAAG	-5.04 ± 0.28	-2.86 ± 0.25
CUACAGCAAUAUUACGAGGG	-3.38 ± 0.19	-2.59 ± 0.2
ACCGAGCAAUAUUACGCGCU	-2.81 ± 0.17	-1.19 ± 0.19
UUCCAGCAAUAUUACGUACG	-0.796 ± 0.1	-0.902 ± 0.16
CAUGAGCAAUAUUACGACAG	-1.89 ± 0.13	-1.02 ± 0.15
AGCAAGCAAUAUUACGAGGC	-4.52 ± 0.34	-2.51 ± 0.23
UGACAGCAAUAUUACGAACC	-2.97 ± 0.25	-1.37 ± 0.22
AGUUAGCAAUAUUACGCGGU	-2.58 ± 0.14	-1.93 ± 0.18
GCAGAGCAAUAUUACGCAUG	–	-2.3 ± 0.39
AGGGAGCAAUAUUACGCGCA	-1.71 ± 0.4	-2.11 ± 0.34
UUGCAGCAAUAUUACGCGCG	-1.88 ± 0.12	-1.29 ± 0.14
AGGGAGCAAUAUUACGUCAG	–	-2.97 ± 0.35
GAGCAGCAAUAUUACGGCAU	-0.308 ± 0.081	-0.549 ± 0.094
GUCAAGCAAUAUUACGGCGG	-4.75 ± 0.32	-2.83 ± 0.24
ACGGAGCAAUAUUACGGAUA	-3.27 ± 0.33	-2.61 ± 0.42
ACGUAGCAAUAUUACGCAAC	-2.74 ± 0.31	-2.17 ± 0.35
AAUGAGCAAUAUUACGGCAU	-1.55 ± 0.12	-0.695 ± 0.12
AUAUAGCAAUAUUACGUCCA	-1.87 ± 0.34	-0.0483 ± 0.29
AACCAGCAAUAUUACGCCCG	-0.353 ± 0.1	-0.271 ± 0.17
CCGAAGCAAUAUUACGUUUU	-3.83 ± 0.17	-3.26 ± 0.18
AUUAAGCAAUAUUACGGGCU	-1.31 ± 0.13	-1.47 ± 0.17

Sequence	self-splicing fitness (ln) (30 °C)	self-splicing fitness (ln) (37 °C)
AGUCAGCAAUAUUACGCUUC	-2.35 ± 0.2	-1.79 ± 0.21
GAAUAGCAAUAUUACGGGGU	-3.77 ± 0.21	-3.71 ± 0.21
GCACAGCAAUAUUACGCGAG	-2.41 ± 0.092	-0.669 ± 0.084
CGGCAGCAAUAUUACGUCGC	–	-0.603 ± 0.28
GUUCAGCAAUAUUACGUGCA	-0.645 ± 0.11	-0.382 ± 0.11
CGAGAGCAAUAUUACGCACA	-2.47 ± 0.27	–
GCAUAGCAAUAUUACGAAUA	-2.07 ± 0.17	-1.38 ± 0.19
GUGAAGCAAUAUUACGACGC	0.482 ± 0.12	0.847 ± 0.17
UUAAAGCAAUAUUACGUCGG	-0.114 ± 0.074	0.43 ± 0.091
GCUAAGCAAUAUUACGGGCA	-1.52 ± 0.098	-1.11 ± 0.13
GAGCAGCAAUAUUACGUUGU	-3.37 ± 0.14	-2.16 ± 0.15
GAGGAGCAAUAUUACGCCUA	-1.68 ± 0.27	-0.955 ± 0.16
GUUCAGCAAUAUUACGCGUA	-0.404 ± 0.12	-0.287 ± 0.15
GCACAGCAAUAUUACGCCUC	-0.836 ± 0.065	-0.337 ± 0.074
GCUGAGCAAUAUUACGAUUU	-1.04 ± 0.08	-0.288 ± 0.096
UCUAAGCAAUAUUACGGACA	-2.39 ± 0.18	-1.18 ± 0.17
UAGUAGCAAUAUUACGCCGG	-1.64 ± 0.21	-0.466 ± 0.24
AGGGAGCAAUAUUACGGUGC	-4.76 ± 0.45	-3.06 ± 0.47
CACUAGCAAUAUUACGAUAU	-4.57 ± 0.34	-2.17 ± 0.2
UCAAAGCAAUAUUACGUAGA	-1.47 ± 0.082	-0.85 ± 0.098
UUGCAGCAAUAUUACGAUAU	-4.06 ± 0.32	-1.78 ± 0.24
GUGGAGCAAUAUUACGCUCG	-1.35 ± 0.16	-1.39 ± 0.23
CAGAAGCAAUAUUACGGGCU	-3.96 ± 0.24	-1.83 ± 0.16
CAGUAGCAAUAUUACGGGGG	-3.48 ± 0.33	-2.02 ± 0.42
GUACAGCAAUAUUACGGGGC	-3.74 ± 0.35	-2.77 ± 0.47
AACCAGCAAUAUUACGAUAA	-1.35 ± 0.058	-0.457 ± 0.069

Sequence	self-splicing fitness (ln) (30 °C)	self-splicing fitness (ln) (37 °C)
GCCAAGCAAUAUUACGCACG	-2.84 ± 0.23	-1.08 ± 0.16
CUCGAGCAAUAUUACGUGUG	-2.74 ± 0.12	-1.27 ± 0.095
UCAUAGCAAUAUUACGGCAA	-2.25 ± 0.13	-1.14 ± 0.1
CAACAGCAAUAUUACGUCAU	-3.92 ± 0.12	-1.86 ± 0.1
ACUUAGCAAUAUUACGCCCG	-1.55 ± 0.17	0.138 ± 0.28
GUCCAGCAAUAUUACGGUGG	-3.36 ± 0.15	-2.71 ± 0.12
GCACAGCAAUAUUACGUAAU	0.164 ± 0.059	-0.0143 ± 0.064
GCCGAGCAAUAUUACGUAAG	-2.26 ± 0.13	-1.09 ± 0.12
GUCAAGCAAUAUUACGAUCA	-1.76 ± 0.23	-0.845 ± 0.15
UGGCAGCAAUAUUACGAGUG	-1.19 ± 0.11	0.196 ± 0.12
CGUCAGCAAUAUUACGGCGA	-1.88 ± 0.17	-1.57 ± 0.21
AGAAAGCAAUAUUACGGCAG	-0.958 ± 0.095	-1.28 ± 0.12
UAGAAGCAAUAUUACGAGGC	–	-2.21 ± 0.42
GAUUAGCAAUAUUACGUUAG	-2.09 ± 0.32	-2.4 ± 0.45
CCAAAGCAAUAUUACGUUUC	-4.24 ± 0.25	-2.78 ± 0.24
AAGCAGCAAUAUUACGACCU	0.301 ± 0.08	0.149 ± 0.11
GCUGAGCAAUAUUACGGUGG	-3.32 ± 0.22	-3.95 ± 0.37
AUUAAGCAAUAUUACGACCG	-1.51 ± 0.1	-0.619 ± 0.16
UCAUAGCAAUAUUACGGUGC	-2.88 ± 0.21	-3.08 ± 0.26
GUGCAGCAAUAUUACGAGGC	-1.83 ± 0.31	-2.43 ± 0.26
ACCUAGCAAUAUUACGUAUU	-1.84 ± 0.075	-1.71 ± 0.11
GCAAAGCAAUAUUACGAUGU	-2.89 ± 0.15	-1.93 ± 0.17
CCAUAGCAAUAUUACGUUAA	-3.44 ± 0.34	-3.04 ± 0.38
AAAGAGCAAUAUUACGAAUU	-1.32 ± 0.22	-2.28 ± 0.31
